Experimental data from patent US20060008846A1 (RESEARCH DEVELOPMENT FOUNDATION, published 2006).
Positions count from the first letter of the chain named. Names and notes keep the numbering of the source. Blank lines part the entries; values can stand above or below the binder they belong to.

Key:
[1] = target: ActRII (type II activin receptor) transfected into 293T cells (UniProt P27038); assay: cell-based or functional assay
[2] = target: T1, ALK4 (activin type I receptor) (UniProt P36896 24-505, limits assumed); assay: cell-based or functional assay
T1 sequence (looked up): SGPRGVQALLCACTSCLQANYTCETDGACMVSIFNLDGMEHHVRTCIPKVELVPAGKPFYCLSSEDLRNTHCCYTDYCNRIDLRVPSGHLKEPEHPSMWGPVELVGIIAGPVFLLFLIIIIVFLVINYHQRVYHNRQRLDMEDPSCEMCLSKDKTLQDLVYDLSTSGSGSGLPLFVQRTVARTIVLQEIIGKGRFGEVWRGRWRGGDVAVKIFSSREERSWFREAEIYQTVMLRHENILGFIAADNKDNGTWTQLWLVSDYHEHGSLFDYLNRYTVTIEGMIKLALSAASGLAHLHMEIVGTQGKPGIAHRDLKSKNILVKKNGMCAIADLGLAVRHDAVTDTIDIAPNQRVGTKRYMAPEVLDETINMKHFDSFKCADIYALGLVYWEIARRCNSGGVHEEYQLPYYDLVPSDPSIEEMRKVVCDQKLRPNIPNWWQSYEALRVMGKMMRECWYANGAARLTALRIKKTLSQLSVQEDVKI

[3] = target: T1, ALK4 (activin type I receptor); assay: cell-based or functional assay; remark: listed apart in the source
[4] = target: T2, mouse ActRII transfected into 293T cells (mouse, UniProt P27038 20-513); assay: ActRII binding, 293T cells transfected with mouse ActRII
T2 construct: whole, on cells
Method: After the incubation cells were washed three times with HDB buffer and lysed with 1% SDS solution. Radioactivity in the lysate was determined using a gamma counter.
Therefore, the inventors contemplate engineering a series of activin-A chimeras, such as activin-A/C chimeras, preferably having a peptide tag such a FLAG tag, in each of […] in the wrist loop and helix (such as A/C 46-53, 54-63, 64-69, 70-78) are replaced. Additionally, a chimera was generated in which the entire wrist region (A/C 46-78) was changed from activin-A to activin-C or some other analogous TGF-β member. In one example, the chimeras were assessed for ActRII binding, activin bioactivity as well as antagonistic properties. […] Maximum activity of A/C 64-69 and 70-78, however, was reduced down to about 20-50% and 60-90%, respectively, when compared to wt activin. […] Additionally, A/C 46-78 decreased the basal and activin induced FSH release from cultured rat anterior pituitary cells in a concentration dependent manner. […] The activin antagonist A/C 46-78 may be useful for the study and modulation of activin dependent processes.

[5] = target: activin receptors of non-transfected 293T cells; assay: competition binding, 125I-activin on non-transfected 293T cells
[6] = target: T3, ActRII and ALK4 co-transfected into 293T cells (UniProt P27038 20-513; P36896 24-505); assay: competition binding, 125I-activin on 293T cells transfected with ActRII and ALK4
T3 construct: whole, on cells; Both receptors on the same cells; also called cells transfected with ActRII and ALK4; receptor complex

[7] = target: T1, ALK4 (activin type I receptor); assay: DSS crosslinking of 125I-M108A to 293T cells transfected with ActRII-myc and ALK4, immunoprecipitation, SDS-PAGE, autoradiography
Method: Cells were incubated with labeled activin or labeled M108A as indicated, subjected to covalent crosslinking with dissucinylsuberate (DSS), solubilized in lysis buffer, immunoprecipitated using an antibody against myc or ALK4 and then immunoprecipitated proteins were resolved by SDS-PAGE and visualized by autoradiography.
Approximately 24 h later, cells were transfected with 2 μg DNA per well with the indicated constructs (the ratio of ActRII:ALK4 was 2:1 and total DNA was kept constant using pcDNA3.0). […] Cells were washed in HDB, resuspended at 0.5 mM disuccinylsuberate (DSS) in HDB and incubated 30 min on ice. Crosslinking reactions were quenched with TBS (50 mM Tris-HCl pH 7.5, 150 mM NaCl) and cells were solubilized in lysis buffer (TBS containing 1% NP-40, 0.5% deoxycholate and 2 mM EDTA) and subjected to immunopreciptation using anti-myc or anti-ALK4 antibodies as indicated. Immune complexes were analyzed by SDS-PAGE and autoradiography.

T2 sequence (P27038 20-513): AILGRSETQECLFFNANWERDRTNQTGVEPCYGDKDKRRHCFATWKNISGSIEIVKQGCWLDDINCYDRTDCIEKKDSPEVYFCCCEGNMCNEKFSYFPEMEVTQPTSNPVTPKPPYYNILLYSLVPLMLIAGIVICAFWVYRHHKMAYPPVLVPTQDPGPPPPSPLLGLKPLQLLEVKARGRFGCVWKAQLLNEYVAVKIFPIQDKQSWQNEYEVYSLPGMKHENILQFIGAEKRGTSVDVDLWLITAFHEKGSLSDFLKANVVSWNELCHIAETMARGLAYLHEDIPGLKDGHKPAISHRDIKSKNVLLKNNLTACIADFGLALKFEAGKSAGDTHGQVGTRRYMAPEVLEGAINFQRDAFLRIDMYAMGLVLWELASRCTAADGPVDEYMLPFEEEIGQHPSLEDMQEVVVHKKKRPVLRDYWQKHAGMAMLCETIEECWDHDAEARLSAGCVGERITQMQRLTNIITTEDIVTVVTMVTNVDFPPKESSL
T3 sequence (P27038 20-513, one chain of several): as the sequence (P27038 20-513) above
Chain of ActRII (type II activin receptor) transfected into 293T cells (P27038 20-513): as above

% Activin Activity (A3-luciferase assay in 293T cells) (% of wild type activin-A) [1]: 18
B1: activin-A K102E (ligand, human, UniProt P08476 311-426, looked up)
chain: GLECDGKVNICCKKQFFVSFKDIGWNDWIIAPSGYHANYCEGECPSHIAGTSGSSLSFHSTVINHYRMRGHSPFANLKSCCVPTKLRPMSMLYYDDGQNIIEKDIQNMIVEECGCS

EC50 of activity in the A3 Lux reporter assay in 293T cells [2]: 0.2 nM
% Activin Activity (A3-luciferase assay in 293T cells) [3]: 100 % of wild type activin-A
EC50 [4]: 0.15 nM
apparent affinity [5]: 60 to 80 pM
fold higher affinity than in cells transfected with ActRII alone [5]: 2 fold
fold higher affinity than in cells transfected with ActRII alone [6]: 2 fold
B2: wild type activin-A (ligand, human, UniProt P08476 311-426, looked up)
chain: B1 chain with E102K
notes: mature; As tracer it was radioiodinated by the chloramine T method; also called WT activin-A; wt activin-A

% Activin Activity (A3-luciferase assay in 293T cells) [3]: 8 % of wild type activin-A
affinity [5]: 370 pM
binding result [7]: no binding
B3: activin-A (M108A) (ligand, human, UniProt P08476 311-426, looked up)
chain: B1 chain with E102K, M108A
notes: mature; Radioiodinated by the chloramine T method for the crosslinking study; also called M108A activin-A; M108A mutant
